Source: patent US12564600B2, “System for enhancing therapeutic compliance of the anti-cancer compound E7766” (Eisai R&D Management Co., Ltd., priority 2019, dated 2026)

Substrate: O=[P@]1(S)OC[C@H]2OC3[C@H](F)[C@@H]2O[P@](=O)(S)OC[C@H]2O[C@H]([C@H](F)[C@@H]2O1)n1cnc2c(ncnc21)NC/C=C/CNc1ncnc2c1ncn23
Experiment: Uptake in HEK293 cells overexpressing OATP1B1
Format: in vitro ADME, human
Details: other: Simcyp input parameter, Table 3; 37.0 °C
Description: TransportoCells™ (Corning, N.Y., USA) expressing OATP2B1, NTCP, and HEK293-FT cells stably transfected with the vector containing OATP1B1 cDNA or OATP1B3 cDNA or empty vector were grown in a Dulbecoo's modified Eagle's medium fortified with 10% fetal calf serum and 2 mmol/L sodium butyrate (for NTCP only) in a humidified incubator at 37° C. and 5% CO2. Cells were harvested at 90% confluence and then seeded in poly-D-lysine-coated 24-well 24 h prior to transporter assay. Cells were washed twice and pre-incubated with 200 μL of pre-warmed Krebs-Henseleit buffer. After pre-incubation, cells were incubated with 3 or 10 μmol L-1 of Compound 1 in presence or absence of 100 μmol L-1 of inhibitors (Rifamycin SV for OATP2B1, Troglitazone for NTCP, Rifamycin for OATP1B1 and OATP1B3). The transport reaction was terminated by aspirating the buffer from the wells at designated time. After washing three times with 200 μL of ice-cold Krebs-Henseleit buffer, the cells were lysed and the resulting cellular lysates were analyzed by LC-MS/MS.
Concentration-dependent uptake of Compound 1 via OATP1B1 and OATP1B3 were conducted with a concentration range of 0.25-100 μmol L-1 under linear uptake. All experiments were run in triplicates.

B1: OATP1B1 (Homo sapiens) (protein)
chain: MDQNQHLNKTAEAQPSENKKTRYCNGLKMFLAALSLSFIAKTLGAIIMKSSIIHIERRFEISSSLVGFIDGSFEIGNLLVIVFVSYFGSKLHRPKLIGIGCFIMGIGGVLTALPHFFMGYYRYSKETNINSSENSTSTLSTCLINQILSLNRASPEIVGKGCLKESGSYMWIYVFMGNMLRGIGETPIVPLGLSYIDDFAKEGHSSLYLGILNAIAMIGPIIGFTLGSLFSKMYVDIGYVDLSTIRITPTDSRWVGAWWLNFLVSGLFSIISSIPFFFLPQTPNKPQKERKASLSLHVLETNDEKDQTANLTNQGKNITKNVTGFFQSFKSILTNPLYVMFVLLTLLQVSSYIGAFTYVFKYVEQQYGQPSSKANILLGVITIPIFASGMFLGGYIIKKFKLNTVGIAKFSCFTAVMSLSFYLLYFFILCENKSVAGLTMTYDGNNPVTSHRDVPLSYCNSDCNCDESQWEPVCGNNGITYISPCLAGCKSSSGNKKPIVFYNCSCLEVTGLQNRNYSAHLGECPRDDACTRKFYFFVAIQVLNLFFSALGGTSHVMLIVKIVQPELKSLALGFHSMVIRALGGILAPIYFGALIDTTCIKWSTNNCGTRGSCRTYNSTSFSRVYLGLSSMLRVSSLVLYIILIYAMKKKYQEKDINASENGSVMDEANLESLNKNKHFVPSAGADSETHC
notes: expressed in transfected cells; host or cells: HEK293-FT
Km: 2.200 µM
